The source of these data is publication PMC2918291 (Nature structural & molecular biology, 2010).

The series deals with the molecule itself. Description: crystal structure.

B1: MthK K^+ channel ion conduction pore, S68R V77C mutant (domain or fragment, Methanobacterium thermoautotrophicum)
chain: VPATRILLLVLAVIIYGTAGFHFIEGESWTVSLYWTFVTIATVGYGDYSPRTPLGMYFTCTLIVLGIGTFAVAVERLLEFLI
As for B1, the binding result was “binds”.
